Holding throughout (test): GC of initial substrate consumption, Michaelis-Menten fit
Conditions in all cases: 330 μM H2O2 as co-substrate, pH 7.4, 50 mM NaH2PO4, 500 mM NaCl, 10% glycerol, 30 °C, 15–40 nM enzyme

Substrate in data set [1]: CCCCCCCCCCCC(=O)O
The class given is biochemical, Lacicoccus qingdaonensis. From the text:
GC of initial substrate consumption, Michaelis-Menten fit on OleTSQ

Substrate in data set [2]: CCCCCCCCCCCC(=O)O
Type of data set: biochemical, Jeotgalicoccus sp. ATCC 8456. From the text:
GC of initial substrate consumption, Michaelis-Menten fit on OleTJE

Substrate in data set [3]: CCCCCCCCCCCC(=O)O
The class given is biochemical, Jeotgalicoccus aerolatus. From the text:
GC of initial substrate consumption, Michaelis-Menten fit on OleTJH

The record followed here is PMC6452516, “Biochemical characterization of three new α-olefin-producing P450 fatty acid decarboxylases with a halophilic property” (Biotechnology for Biofuels, 2019).

B1: OleTSQ (Lacicoccus qingdaonensis) (protein)
chain: MATIKRDKGLDNSVKVMKQGYLYTTNQRERLGVTDGVFETRALGGKRIIVLSGKDGAELFYDNDKIERSGTLPKRVVNTLFGKGAIHTTTGKVHIDRKALFMSLMTEGNLKYLRELTRNLWFANTQRMESMDQVNVYRESIIVLTKVGTRWAGVQAPEKEIENIATDMDIMIDSFKAIGSAFKGYREAKAARRRVEDWLEDQIIQTRKGKIHPPKGTALYEFAHWKDYKGEPMDSRLCGIDLMNTFRPLIAINRFVAFGALAMYENPVAREKIKQDDDYAYMFAQEVRRFYPFVPYLPAKAKVDFQYKGYEIEKDTMLALDIYGTMHDPNVWEDPNEFYPERFKDWDGSPFDLIPQGGGDYHTNHRCAGEWMTVIIMEETMKYFASRINYDVPEQDLTVDLNSLPGYIKSGFVIENVQENVDRT
notes: recombinant, codon-optimized gene in pET28b (NdeI/XhoI), N-terminal His6 tag, E. coli BL21(DE3), Ni-NTA
As usually defined, the Km is the concentration of substrate that gives half-maximal velocity. The kcat is the number of substrate molecules converted per active site and unit of time at saturation. For orientation: kcat/Km means the second-order rate constant that governs catalysis at low substrate concentration. As to B1, in data set [1], the Km stood at 35 ± 10 µM, the kcat is 9.5 ± 0.917 s⁻¹ and the kcat/Km worked out at 267000 M⁻¹ s⁻¹.

B2: OleTJE (Jeotgalicoccus sp. ATCC 8456) (protein)
chain: MATLKRDKGLDNTLKVLKQGYLYTTNQRNRLNTSVFQTKALGGKPFVVVTGKEGAEMFYNNDVVQREGMLPKRIVNTLFGKGAIHTVDGKKHVDRKALFMSLMTEGNLNYVRELTRTLWHANTQRMESMDEVNIYRESIVLLTKVGTRWAGVQAPPEDIERIATDMDIMIDSFRALGGAFKGYKASKEARRRVEDWLEEQIIETRKGNIHPPEGTALYEFAHWEDYLGNPMDSRTCAIDLMNTFRPLIAINRFVSFGLHAMNENPITREKIKSEPDYAYKFAQEVRRYYPFVPFLPGKAKVDIDFQGVTIPAGVGLALDVYGTTHDESLWDDPNEFRPERFETWDGSPFDLIPQGGGDYWTNHRCAGEWITVIIMEETMKYFAEKITYDVPEQDLEVDLNSIPGYVKSGFVIKNVREVVDRT
notes: purified recombinant P450 from E. coli, His-tagged (Ni-NTA); cloning of this control enzyme not described here
Consider B2, for which, in data set [2], the Km came to 41 ± 4 µM, the kcat is 14.3 ± 0.467 s⁻¹ and the kcat/Km was 350000 M⁻¹ s⁻¹.

B3: OleTJH (Jeotgalicoccus aerolatus) (protein)
chain: MASLKRDKGLDNTLKVMKQGYLYTTNQRNRLNTTVFETKALGGKPFAVVTGKEGAEMFYNNDIVQREGMLPKRIVNTLFGKGAIHTIDGKKHVDRKALFMSLMTEGNLNYVRELTRTLWQANTQRMESMDEVNIYRESIVLLTKVGTRWAGVQAPPEQIERIATDMDIMIDSFKGLGGVFKGYKESKAARRRVEDWLEDQILETRKGNIHPPEGTALYEFAHWEDYLGNPMDSRNCAIDLMNTFRPLIAINRFVSFGLLAMHDNPVSREKIKSEPDYAYKFAQEVRRYYPFVPFLPGKAKTDIDFQGVTIPAGHGLAIDVYGTLHDESLWEDPNEFRPERFEGWDGSPFDLIPQGGGDYWTNHRCAGEWITVIIMEETMKYFAEKVTYDVPEQDLTVDLNSIPGYVKSGFVIKNVQEVVDRR
notes: as for B1
B3: in data set [3], the Km came to 46 ± 15 µM, the kcat was 15.2 ± 1.88 s⁻¹ and the kcat/Km was 333000 M⁻¹ s⁻¹.
